Test results published in paper PMC11656743.
Where “and” joins values, the source holds several entries; their conditions need not be identical. Equal entries are not always repeated.

How the values were obtained:
[1] = biological target: MoaB2 with C-terminal His-tag, for crystallography (strain LK2615) (M. smegmatis); assay: dynamic light scattering; 5 mg/mL MoaB2 in 20 mM Tris-HCl pH 8.0, 50 mM NaCl, 3 mM NaN3, 25°C
[2] = biological target: MoaB2 with C-terminal His-tag, for crystallography (strain LK2615) (M. smegmatis); assay: crystal structure; X-ray, 2.53 Å; crystals from 0.2 M calcium chloride, 14% PEG 400, 0.1 M sodium-HEPES pH 7.5
[3] = biological target: σ^A, recombinant, tag cleaved (strain LK2832) (M. smegmatis) (UniProt A0QW02); assay: AUC; multi-signal sedimentation velocity (absorbance 280 nm and interference) at σ^A:MoaB2 molar ratio 1:0.3
[4] = biological target: σ^A, recombinant, tag cleaved (strain LK2832) (M. smegmatis) (UniProt A0QW02); assay: AUC; sedimentation velocity, 20°C, 50 mM HEPES pH 7.5, 100 mM NaCl, 0.5 mM TCEP, 3 mM NaN3; σ^A 19.4 µM, MoaB2 77.6 µM, σ^A:MoaB2 mixtures 1:0.1 to 1:4
[5] = biological target: MoaB2, recombinant, tag cleaved (strain LK2936) (M. smegmatis) (UniProt A0R3I5); assay: as above
[6] = biological target: MoaB2, recombinant, tag cleaved (strain LK2936) (M. smegmatis) (UniProt A0R3I5); assay: SEC; Superdex 200 Increase 10/300, 25 mM Tris-HCl pH 7.5, 50 mM NaCl, 1 mM DTT, 15°C; fractions on SDS-PAGE

Row | Substance | stoichiometry N [1] | stoichiometry N [2] | stoichiometry N [3] | Kd [4] | stoichiometry N [4] | stoichiometry N [5] | stoichiometry N [6]
1 | MoaB2 with C-terminal His-tag, for crystallography (strain LK2615) (natural protein) | 6 | 6 | – | – | – | – | –
2 | MoaB2, recombinant, tag cleaved (strain LK2936) (from UniProt A0R3I5 1-178) (natural protein) | – | – | 1 σ^A:MoaB2 | < 1000 nM | 1 σ^A:MoaB2 | 6 and 3 | 6
